Target: T1, transcription factor RFX-5, P48382
T1 chain: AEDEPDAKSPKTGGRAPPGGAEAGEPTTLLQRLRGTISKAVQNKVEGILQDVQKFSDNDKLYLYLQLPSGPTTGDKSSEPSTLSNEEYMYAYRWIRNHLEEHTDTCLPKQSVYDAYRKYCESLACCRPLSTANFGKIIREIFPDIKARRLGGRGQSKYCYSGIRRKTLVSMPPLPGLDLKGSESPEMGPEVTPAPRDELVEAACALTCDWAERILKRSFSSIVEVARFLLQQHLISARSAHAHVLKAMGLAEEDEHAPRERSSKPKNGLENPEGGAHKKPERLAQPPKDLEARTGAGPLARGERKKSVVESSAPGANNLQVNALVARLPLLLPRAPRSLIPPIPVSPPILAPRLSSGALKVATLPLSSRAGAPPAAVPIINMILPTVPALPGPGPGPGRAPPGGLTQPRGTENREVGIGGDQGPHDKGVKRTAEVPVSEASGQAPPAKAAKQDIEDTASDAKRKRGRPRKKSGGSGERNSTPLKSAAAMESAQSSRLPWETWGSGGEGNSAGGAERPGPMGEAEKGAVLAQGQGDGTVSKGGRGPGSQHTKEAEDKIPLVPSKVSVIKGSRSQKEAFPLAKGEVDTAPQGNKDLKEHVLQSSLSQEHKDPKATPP

B1: recombinant chlamydial protease-like activity factor (CPAF) from the C. trachomatis L2 genome, fusion protein with a 6-His tag at the N-terminus (protein)
chain: MGFWRTSIMKMNRIWLLLLTFSSAIHSPVRGESLVCKNALQDLSFLEHLLQVKYAPKTWKEQYLGWDLVQSSVSAQQKLRTQENPSTSFCQQVLADFIGGLNDFHAGVTFFAIESAYLPYTVQKSSDGRFYFVDIMTFSSEIRVGDELLEVDGAPVQDVLATLYGSNHKGTAAEESAALRTLFSRMASLGHKVPSGRTTLKIRRPFGTTREVRVKWRYVPEGVGDLATIAPSIRAPQLQKSMRSFFPKKDDAFHRSSSLFYSPMVPHFWAELRNHYATSGLKSGYNIGSTDGFLPVIGPVIWESEGLFRAYISSVTDGDGKSHKVGFLRIPTYSWQDMEDFDPSGPPPWEEFAKIIQVFSSNTEALIIDQTNNPGGSVLYLYALLSMLTDRPLELPKHRMILTQDEVVDALDWLTLLENVDTNVESRLALGDNMEGYTVDLQVAEYLKSFGRQVLNCWSKGDIELSTPIPLFGFEKIHPHPRVQYSKPICVLINEQDFSCADFFPVVLKDNDRALIVGTRTAGAGGFVFNVQFPNRTGIKTCSLTGSLAVREHGAFIENIGVEPHIDLPFTANDIRYKGYSEYLDKVKKLVCQLINNDGTIILAEDGSF
B1 was tested, and the “degradation of the transcription factor RFX-5” value was “the biological activity of recombinant CPAF was confirmed by the ability to degrade the transcription factor, RFX-5”.
